In patent US20250326860A1 (ADAGENE PTE, published 2025):
Positions count from the first letter of the chain named. Names and notes keep the numbering of the source. Values joined by “and” are separate entries in the source; they are usually repeats but may differ in a detail not shown here. Equal entries are not always repeated. Where two headings read alike, the source gives them in different places. Blank lines part the entries; values can stand above or below the binder they belong to.

Assays:
[1] = biological target: T1, human CD3 on cells (Jurkat cells, human T cells) (human, UniProt P07766 23-207); experiment: flow cytometry on Jurkat cells, anti-human IgG AF647 secondary antibody
T1 construct: whole, on cells
T1 sequence (P07766 23-207): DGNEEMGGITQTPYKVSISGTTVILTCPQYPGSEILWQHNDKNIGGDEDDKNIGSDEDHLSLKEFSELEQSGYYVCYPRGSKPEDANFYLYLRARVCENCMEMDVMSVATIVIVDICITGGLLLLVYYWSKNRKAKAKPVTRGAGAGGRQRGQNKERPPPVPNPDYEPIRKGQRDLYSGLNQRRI
Protocol: The ability of the parental huOKT3 anti-CD3 antibody TAC2245 and the activatable huOKT3 anti-CD3 antibody TY23104 to bind Jurkat cells was measured in a dose-dependent binding assay.
The Jurkat cells were thawed, washed and cultured in an incubator. 4×10⁵ Jurkat cells/well were aliquoted into 96-well plate and incubated with parental huOKT3 TAC2245 or activatable huOKT3 for 1 hour at 4° C. After centrifugation and washing, Jurkat cells were further incubated with the secondary antibody anti-human IgG AF647 for 30 minutes at 4° C. After centrifugation and washing, the Jurkat cells labelled with antibodies were re-suspended in 2% FBS DPBS and analyzed by FACS.

[2] = biological target: T1, human CD3 on cells (Jurkat cells, human …); experiment: Jurkat cell binding
[3] = biological target: T1, human CD3 on cells (Jurkat cells, human …); experiment: Jurkat cell binding; remark: listed apart in the source

EC50 [3]: 260 nM
B4: TY25524 (bispecific antibody, human IgG1, kappa, N297A)
light: not shown
heavy: not shown
chain: EAVVTQEPSLTVSPGGTVTLTCGSSTGAVTTSNYANWVQQKPGQAPRGLIGGTKFRAPGIPARFSGSLLGGKAALTLSGAQPEDEAEYYCALWYSDHWVFGGGTKLTVLGGGGSGGGGSGGGGSGGGGSEVQLVESGGGLVQPGGSLRLSCAASGFTFSTYAINWVRQAPGKGLEWVGRIRSKYNNYATYYAESVKGRFTISRDDSKNTLYLQINSLRAEDTAVYYCARHGNFGTSYVSWFAYWGQGTLVTVSSEPKSSDKTHTCPPCPAPELLGGPSVFLFPPKPKDTLMISRTPEVTCVVVDVSHEDPEVKFNWYVDGVEVHNAKTKPREEQYASTYRVVSVLTVLHQDWLNGKEYKCKVSNKALPAPIEKTISKAKGQPREPQVYTDPPSRDELTKNQVSLTCLVDGFYPSDIAVEWESNGQPENCYKTTPPVLDSDGSFFLYSKLTVDKSRWQQGNVFSCSVMHEALHNHYTQDSLSLSPGK

EC50 (read off the curve) [1]: ~0.3 nM
B6: TAC2245 (antibody, V domains shown)
VH: QVQLVQSGGGVVQPGRSLRLSCKASGYTFTRYTMHWVRQAPGKGLEWIGYINPSRGYTNYNQKVKDRFTISRDNSKNTAFLQMDSLRPEDTGVYFCARYYDDHYSLDYWGQGTPVTVSS
VL: DIQMTQSPSSLSASVGDRVTITCSASSSVSYMNWYQQTPGKAPKRWIYDTSKLASGVPSRFSGSGSGTDYTFTISSLQPEDIATYYCQQWSSNPFTFGQGTKLQIT
notes: also called huOKT3-C114S-gLC; parental huOKT3 anti-CD3 antibody

Second part, the binder before the results:

B1: TY23104 (antibody, human IgG4 S228P, kappa)
light: EVGSYAYHDDDCPDDDYDCASSGRSAGGGGTPLGLAGSGGSDIQMTQSPSSLSASVGDRVTITCSASSSVSYMNWYQQTPGKAPKRWIYDTSKLASGVPSRFSGSGSGTDYTFTISSLQPEDIATYYCQQWSSNPFTFGQGTKLQITRTVAAPSVFIFPPSDEQLKSGTASVVCLLNNFYPREAKVQWKVDNALQSGNSQESVTEQDSKDSTYSLSSTLTLSKADYEKHKVYACEVTHQGLSSPVTKSFNRGEC
heavy: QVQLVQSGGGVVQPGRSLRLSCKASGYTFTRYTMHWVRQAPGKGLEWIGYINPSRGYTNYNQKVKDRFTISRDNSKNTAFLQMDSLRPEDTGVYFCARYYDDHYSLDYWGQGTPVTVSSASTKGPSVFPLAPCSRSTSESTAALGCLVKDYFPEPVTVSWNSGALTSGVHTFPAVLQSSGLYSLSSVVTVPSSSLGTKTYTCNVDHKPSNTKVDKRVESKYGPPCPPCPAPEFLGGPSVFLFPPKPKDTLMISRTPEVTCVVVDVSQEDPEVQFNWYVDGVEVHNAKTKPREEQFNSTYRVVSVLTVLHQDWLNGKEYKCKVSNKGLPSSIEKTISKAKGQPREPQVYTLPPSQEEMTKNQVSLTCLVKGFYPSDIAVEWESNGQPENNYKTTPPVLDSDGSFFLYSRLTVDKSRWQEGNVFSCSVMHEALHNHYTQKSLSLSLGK
notes: also called anti-CD3 SAFEbody
EC50 (read off the curve) [1]: ~70 nM

B2: TY24051 (bispecific antibody)
light: not shown
heavy: not shown
chain: QAVVTQEPSLTVSPGGTVTLTCGSSTGAVTTSNYANWVQQKPGQAPRGLIGGTNKRAPGVPARFSGSLLGGKAALTLSGAQPEDEAEYYCALWYSNLWVFGGGTKLTVLRGGGGSGGGGSGGGGSGGGGSEVQLVESGGGLVQPGGSLRLSCAASGFTFNTYAMNWVRQAPGKGLEWVGRIRSKYNNYATYYADSVKGRFTISRDDSKNTLYLQMNSLRAEDTAVYYCVRHGNFGNSYVSWFAYWGQGTLVTVSSEPKSSDKTHTCPPCPAPELLGGPSVFLFPPKPKDTLMISRTPEVTCVVVDVSHEDPEVKFNWYVDGVEVHNAKTKPREEQYASTYRVVSVLTVLHQDWLNGKEYKCKVSNKALPAPIEKTISKAKGQPREPQVYTDPPSRDELTKNQVSLTCLVDGFYPSDIAVEWESNGQPENCYKTTPPVLDSDGSFFLYSKLTVDKSRWQQGNVFSCSVMHEALHNHYTQDSLSLSPGK
notes: also called parental HER2xCD3 bispecific antibody; anti-CD3 variant TAC2225
EC50 [2]: 15.3 nM and 10.2 nM

B3: TY25023 (bispecific antibody, human IgG1, kappa, N297A)
light: not shown
heavy: not shown
chain: B4 chain with A35P, K54N, F55K, I60T, H97L, G178S, G197D, A228V
notes: also called anti-CD3 variant TY24742
EC50 [2]: > 1000 nM and 480 nM

B5: TY25525 (bispecific antibody, human IgG1, kappa, N297A)
light: not shown
heavy: not shown
chain: QAVVTQEPSLTVSPGGTVTLTCGSSTGAVTTSNYPNWVQQKPGQAPRGLIGGTNKRAPGVPARFSGSLLGGKAALTLSGAQPEDEAEYYCALWYSNLWVFGGGTKLTVLGGGGSGGGGSGGGGSGGGGSEVQLVESGGGLVKPGGSLRLSCAASGFTFSSYAINWVRQAPGKGLEWVGRIRSKYNNYATYYAESVKGRFTISRDDSKNTLYLQINSLRAEDTAVYYCVRHGNFGNSYVSYWAYWGQGTLVTVSSEPKSSDKTHTCPPCPAPELLGGPSVFLFPPKPKDTLMISRTPEVTCVVVDVSHEDPEVKFNWYVDGVEVHNAKTKPREEQYASTYRVVSVLTVLHQDWLNGKEYKCKVSNKALPAPIEKTISKAKGQPREPQVYTDPPSRDELTKNQVSLTCLVDGFYPSDIAVEWESNGQPENCYKTTPPVLDSDGSFFLYSKLTVDKSRWQQGNVFSCSVMHEALHNHYTQDSLSLSPGK
EC50 [3]: 6.88 nM
